Data from patent US20240239877A1.

Molecular target: 123 different clinical envelope proteins
Experiment: cell-based or functional assay

| Binder | Geometric mean EC50 (nM), cell-cell fusion assay [nM] | Geometric mean EC50 (µg/mL), cell-cell fusion assay [µg/mL] | Median EC50 (nM), cell-cell fusion assay [nM] |
| --- | --- | --- | --- |
| CD4 B Adnectin (anti-CD4 Domain 4 Adnectin) (designed binder) MASTSGSASYLIPSDLEVVAATPTSLSIYWYPVASTIINFRITYVETGGNSPVQEFTVPGSKSTATISGLKPGVDYTITVYAVHYEQKYSEYWIGHPISINYRTEGSGSHHHHHH | 163 | 1.8 | 1300 |
| CD4 A Adnectin (anti-CD4 Domain 2 Adnectin) (designed binder) GVSDVPRDLEVVAATPTSLLISWDAPAVTVHSYHIQYWPLGSYQRYQVFSVPGSKSTATISGLKPGVEYQIRVYAETGGADSDQSFGWIQIGYRTP | 5.5 | 0.006 | 5.3 |
